The values that follow come from article PMC7319049 (Nature, 2020).

B1: Rtt102 (natural protein)
chain: MDPQTLITKANKVSYYGNPTSKESWRYDWYQPSKVSSNVQQPQQQLGDMENNLEKYPFRYKTWLRNQEDEKNLQRESCEDILDLKEFDRRILKKSLMTSHTKGDTSKATGAPSANQGDEALSVDDIRGAVGNSEAIPGLSAGVNNDNTKESKDVKMN
B2: Arp7 (natural protein)
chain: MTLNRKCVVIHNGSHRTVAGFSNVELPQCIIPSSYIKRTDEGGEAEFIFGTYNMIDAAAEKRNGDEVYTLVDSQGLPYNWDALEMQWRYLYDTQLKVSPEELPLVITMPATNGKPDMAILERYYELAFDKLNVPVFQIVIEPLAIALSMGKSSAFVIDIGASGCNVTPIIDGIVVKNAVVRSKFGGDFLDFQVHERLAPLIKEENDMENMADEQKRSTDVWYEASTWIQQFKSTMLQVSEKDLFELERYYKEQADIYAKQQEQLKQMDQQLQYTALTGSPNNPLVQKKNFLFKPLNKTLTLDLKECYQFAEYLFKPQLISDKFSPEDGLGPLMAKSVKKAGASINSMKANTSTNPNGLGTSHINTNVGDNNSTASSSNISPEQVYSLLLTNVIITGSTSLIEGMEQRIIKELSIRFPQYKLTTFANQVMMDRKIQGWLGALTMANLPSWSLGKWYSKEDYETLKRDRKQSQATNATN
B3: Arp9 (natural protein)
chain: MAPFRQDSILIIYPRSQTTLVQFGLNEETFTVPELEIPTQIYRTTRQDGSYTYHSTNKDNKAELIKPIQNGEIIDISAFTQFLRLIFVSILSDRANKNQDAFEAELSNIPLLLITHHSWSQSDLEIITQYVFESLEINNLIQLPASLAATYSMISLQNCCIIDVGTHHTDIIPIVDYAQLDHLVSSIPMGGQSINDSLKKLLPQWDDDQIESLKKSPIFEVLSDDAKKLSSFDFGNENEDEDEGTLNVAEIITSGRDTREVLEERERGQKVKNVKNSDLEFNTFWDEKGNEIKVGKQRFQGCNNLIKNISNRVGLTLDNIDDINKAKAVWENIIIVGGTTSISGFKEALLGQLLKDHLIIEPEEEKSKREEEAKSVLPAATKKKSKFMTNSTAFVPTIEYVQCPTVIKLAKYPDYFPEWKKSGYSEIIFLGAQIVSKQIFTHPKDTFYITREKYNMKGPAALWDVQF
B4: Swi1 (natural protein)
chain: MDFFNLNNNNNNNNTTTTTTTTNNNNTNNNNTNNNNNPANNTNNNNSTGHSSNTNNNTNNNNTNTGASGVDDFQNFFDPKPFDQNLDSNNNNSNSNNNDNNNSNTVASSTNFTSPTAVVNNAAPANVTGGKAANFIQNQSPQFNSPYDSNNSNTNLNSLSPQAILAKNSIIDSSNLPLQAQQQLYGGNNNNNSTGIANDNVITPHFITNVQSISQNSSSSTPNTNSNSTPNANQQFLPFNNSASNNGNLTSNQLISNYAASNSMDRSSSASNEFVPNTSDNNNNSNNHNMRNNSNNKTSNNNNVTAVPAATPANTNNSTSNANTVFSERAAMFAALQQKQQQRFQALQQQQQQQQNQQQQNQQPQQQQQQQQNPKFLQSQRQQQQRSILQSLNPALQEKISTELNNKQYELFMKSLIENCKKRNMPLQSIPEIGNRKINLFYLYMLVQKFGGADQVTRTQQWSMVAQRLQISDYQQLESIYFRILLPYERHMISQEGIKETQAKRIFLQQFLQELLKKVQQQQQAAALANANNNINSASSAPTPAAPGASVPATAAPGTEAGIVPVSANTPKSLNSNININVNNNNIGQQQVKKPRKQRVKKKTKKELELERKEREDFQKRQQKLLEDQQRQQKLLLETKLRQQYEIELKKLPKVYKRSIVRNYKPLINRLKHYNGYDINYISKIGEKIDSNKPIFLFAPELGAINLHALSMSLQSKNLGEINTALNTLLVTSADSNLKISLVKYPELLDSLAILGMNLLSNLSQNVVPYHRNTSDYYYEDAGSNQYYVTQHDKMVDKIFEKVNNNATLTPNDSNDEKVTILVDSLTGNQLPTPTPTEMEPDLDTECFISMQSTSPAVKQWDLLPEPIRFLPNQFPLKIHRTPYLTSLKKIKDEIDDPFTKINTRGAEDPKVLINDQLSTISMILRNISFSDNNSRIMSRNFYLKRFISDLLWLVLIHPENFTCNRKILNFKKDLVIVLSNISHLLEIASSIDCLLILILVISFGQPKLNPMASSSSFGSESLTFNEFQLQWGKYQTFGVDILAKLFSLEKPNLNYFKSILLNKNTGNNLYDRNSNNNHKDKKLLRRLLNLYNDNNKNNNNRHNLLNDVVSFLFSAIPLQQVLSQSADPSLLIDQFSPVISQSLTSILVIVQKILPLSNEVFEISENNSDSNSNNNGNKDSSFNFNKNLPFVWLSSEENIGSGLLKLSEIILNINNSTSKNTLLQQQNYSKVLLPSINISCVQLIKCLVEKSICFENCLNNDPEILKKIASIPNLFPTDLEIFQLFTNPSVDIQIINQYQLLYNLKNDILTNLE
B5: Snf5 (natural protein)
chain: MNNQPQGTNSVPNSIGNIFSNIGTPSFNMAQIPQQLYQSLTPQQLQMIQQRHQQLLRSRLQQQQQQQQQTSPPPQTHQSPPPPPQQSQPIANQSATSTPPPPPAPHNLHPQIGQVPLAPAPINLPPQIAQLPLATQQQVLNKLRQQAIAKNNPQVVNAITVAQQQVQRQIEQQKGQQTAQTQLEQQRQLLVQQQQQQQLRNQIQRQQQQQFRHHVQIQQQQQKQQQQQQQHQQQQQQQQQQQQQQQQQQQQQQQQQQQQQQQQQQQQQGQIPQSQQVPQVRSMSGQPPTNVQPTIGQLPQLPKLNLPKYQTIQYDPPETKLPYPTYWSDKKADTDTLLYEQIIQRDKINKYSLIRETNGYDPFSIYGFSNKEYISRLWHTLKYYQDLKNTRMKSITSTSQKIPSASIWGNGYSGYGNGITNTTTRVIPQVEVGNRKHYLEDKLKVYKQAMNETSEQLVPIRLEFDQDRDRFFLRDTLLWNKNDKLIKIEDFVDDMLRDYRFEDATREQHIDTICQSIQEQIQEFQGNPYIELNQDRLGGDDLRIRIKLDIVVGQNQLIDQFEWDISNSDNCPEEFAESMCQELELPGEFVTAIAHSIREQVHMYHKSLALLGYNFDGSAIEDDDIRSRMLPTITLDDVYRPAAESKIFTPNLLQISAAELERLDKDKDRDTRRKRRQGRSNRRGMLALSGTSASNTSMNGVHNTVAAGNASSLPPGEILLPDIADIPRTFRTPVPSTLMPGGVDVGPSVESYELRNTTTYKSRPDRPKPVSPPCYIIDHIPGHSLLLSIKLPGKVNTKEEFAAAPNDTSSGTNAMLPSPESLKTKLNSNIRAGVTIPSIPNPIANHTVTNSPNPTLQPVIPGGAASKSVPTPSLPIAPPVAPHDSEATLLTNSNNGSSNNNTQNT

One assay deals with Snf2 (S. cerevisiae, UniProt P22082 1-1703). Put plainly: cryo-EM structure.
In the assay “Swi1” the target is B4. Put plainly: cryo-EM structure.

Snf2, sequence (P22082 whole entry): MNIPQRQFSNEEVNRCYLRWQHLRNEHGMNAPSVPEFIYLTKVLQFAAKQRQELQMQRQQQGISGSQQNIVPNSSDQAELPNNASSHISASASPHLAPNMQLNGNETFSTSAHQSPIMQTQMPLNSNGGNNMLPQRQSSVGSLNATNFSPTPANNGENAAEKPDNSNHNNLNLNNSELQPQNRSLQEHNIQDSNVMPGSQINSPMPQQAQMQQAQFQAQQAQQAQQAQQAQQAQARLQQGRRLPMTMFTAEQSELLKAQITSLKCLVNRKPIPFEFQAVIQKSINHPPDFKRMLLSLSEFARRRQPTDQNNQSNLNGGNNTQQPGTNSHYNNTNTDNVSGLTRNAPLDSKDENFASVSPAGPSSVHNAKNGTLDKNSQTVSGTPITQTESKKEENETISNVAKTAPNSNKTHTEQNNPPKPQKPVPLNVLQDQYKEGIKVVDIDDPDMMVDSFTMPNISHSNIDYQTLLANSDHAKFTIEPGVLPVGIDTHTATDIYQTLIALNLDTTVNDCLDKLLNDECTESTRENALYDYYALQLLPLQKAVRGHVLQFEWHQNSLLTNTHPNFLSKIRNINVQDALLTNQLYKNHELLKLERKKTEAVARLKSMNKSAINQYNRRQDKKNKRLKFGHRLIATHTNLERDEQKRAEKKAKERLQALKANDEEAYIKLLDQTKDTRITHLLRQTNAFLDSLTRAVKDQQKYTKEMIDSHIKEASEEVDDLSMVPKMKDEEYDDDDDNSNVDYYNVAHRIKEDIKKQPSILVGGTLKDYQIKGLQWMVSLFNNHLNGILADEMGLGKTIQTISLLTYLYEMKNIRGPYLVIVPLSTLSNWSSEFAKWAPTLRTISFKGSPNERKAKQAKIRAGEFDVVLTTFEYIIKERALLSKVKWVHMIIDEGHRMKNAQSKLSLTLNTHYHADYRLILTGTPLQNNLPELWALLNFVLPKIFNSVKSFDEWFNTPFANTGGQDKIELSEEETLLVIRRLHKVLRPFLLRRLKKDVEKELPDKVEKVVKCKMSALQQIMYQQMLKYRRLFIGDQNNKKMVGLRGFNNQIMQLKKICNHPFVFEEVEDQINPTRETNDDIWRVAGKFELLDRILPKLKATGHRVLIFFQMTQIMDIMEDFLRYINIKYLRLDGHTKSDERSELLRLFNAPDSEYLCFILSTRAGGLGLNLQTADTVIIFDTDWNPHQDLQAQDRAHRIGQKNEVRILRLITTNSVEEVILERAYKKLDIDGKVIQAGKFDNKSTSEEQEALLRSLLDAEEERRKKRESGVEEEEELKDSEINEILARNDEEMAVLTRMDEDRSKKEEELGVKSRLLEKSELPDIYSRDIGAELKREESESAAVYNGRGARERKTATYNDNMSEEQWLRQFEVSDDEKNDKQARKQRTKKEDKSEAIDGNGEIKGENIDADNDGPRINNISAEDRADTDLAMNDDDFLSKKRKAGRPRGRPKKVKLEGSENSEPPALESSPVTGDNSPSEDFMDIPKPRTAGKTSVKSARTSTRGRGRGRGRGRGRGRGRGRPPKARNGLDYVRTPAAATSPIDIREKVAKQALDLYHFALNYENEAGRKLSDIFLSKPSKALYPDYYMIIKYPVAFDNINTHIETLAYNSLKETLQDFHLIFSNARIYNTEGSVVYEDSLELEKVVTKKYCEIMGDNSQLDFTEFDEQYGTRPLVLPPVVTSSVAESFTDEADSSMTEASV

Turning to B1, in the assay with Snf2, the binding result is reported as “binds”. Same read-out and setting: next, B2: “binds”. On to B3, for which the binding result with Snf2 was “binds”. As for B4, in the assay with Snf2, the binding result is listed as “binds”. As for B5, the binding result in the assay with Swi1 is on record as “binds”.
